Assay results from paper PMC9127371, “Assembly of nuclear dimers of PI3K regulatory subunits is regulated by the Cdc42-activated tyrosine kinase ACK” (The Journal of Biological Chemistry, 2022).
Square brackets hold non-standard residues; d marks the D form. Ends that are not written are not given here. * marks the point of attachment. 5FAM = O=C1OC2(c3ccc(O)cc3Oc3cc(O)ccc32)c2ccc(C(=O)*)cc21; pY = N[C@@H](Cc1ccc(OP(=O)(O)O)cc1)C(=O)O

T1: p85β cSH2 (603–712) (mouse, UniProt O08908 603-712)
T1 construct: PI3K regulatory subunit p85β, mouse, C-terminal SH2 domain, residues 603-712; also called cSH2 domain of p85β; source: E. coli, purified (glutathione-agarose, HRV 3C cleavage, S75 size exclusion)
T1 sequence (looked up): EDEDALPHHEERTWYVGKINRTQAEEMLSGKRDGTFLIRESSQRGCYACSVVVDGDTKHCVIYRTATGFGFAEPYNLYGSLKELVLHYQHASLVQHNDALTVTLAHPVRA

B1: [5-FAM]-SD-[pY]-MNMTP, CD28 peptide (peptide)
peptide: 5FAM-SD[pY]MNMTP
notes: Known p85 SH2 target peptide from CD28; also called control peptide from CD28; source: synthetic peptide; bought: Biomatik
B2: [5-FAM]-TEDQ-[pY]-SLMEDE, phosphorylated peptide based on p85β (peptide)
peptide: 5FAM-TEDQ[pY]SLMEDE
notes: also called β peptide; p85β (pYSLM) peptide; source: synthetic peptide; bought: Cambridge Research Biochemicals
B3: [5-FAM]-TEDQ-[pY]-SLVEDE, phosphorylated peptide based on p85α (peptide)
peptide: 5FAM-TEDQ[pY]SLVEDE
notes: also called α peptide; p85α (pYSLV) peptide; source: synthetic peptide; bought: Biomatik

Columns and labels:
Assay in all cases: fluorescence polarisation; SH2 domain titrated into 5-FAM-labelled peptide (20 nM CD28, YSLV, pYSLV; 40 nM YSLM, pYSLM), 298 K, 96-well plates, single site binding isotherm
Details in all cases: both partners purified
p85α cSH2 (614–720) = molecular target: T2, p85α cSH2 (614–720) (human, UniProt P27986 614-720)
T2 construct: PI3K regulatory subunit p85α, human, C-terminal SH2 domain, residues 614-720; also called cSH2 domain of p85α; source: E. coli, purified (glutathione-agarose, HRV 3C cleavage, S75 size exclusion)
T2 sequence (P27986 614-720): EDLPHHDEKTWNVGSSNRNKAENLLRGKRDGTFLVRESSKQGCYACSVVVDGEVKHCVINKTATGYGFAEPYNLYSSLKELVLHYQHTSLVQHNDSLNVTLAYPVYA

p85β cSH2 (603–712) = molecular target: T1, p85β cSH2 (603–712)
p85α nSH2 (325–430) = molecular target: T3, p85α nSH2 (325–430) (human, UniProt P27986 325-430)
T3 construct: PI3K regulatory subunit p85α, human, N-terminal SH2 domain, residues 325-430; also called nSH2 domain of p85α; WT nSH2 domain of p85α; source: E. coli, purified (glutathione-agarose, HRV 3C cleavage, S75 size exclusion)
T3 sequence (P27986 325-430): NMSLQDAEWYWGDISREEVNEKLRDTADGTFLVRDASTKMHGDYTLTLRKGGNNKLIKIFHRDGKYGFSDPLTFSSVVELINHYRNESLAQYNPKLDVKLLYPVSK

p85β nSH2 (312–425) = molecular target: T4, p85β nSH2 (312–425) (mouse, UniProt O08908 312-425)
T4 construct: PI3K regulatory subunit p85β, mouse, N-terminal SH2 domain, residues 312-425; also called nSH2 domain of p85β; WT nSH2 domain of p85β; source: E. coli, purified (Ni-NTA, HRV 3C cleavage, size exclusion); not shown: His6, N-terminal, cleaved; MBP, N-terminal, cleaved
T4 sequence (O08908 312-425): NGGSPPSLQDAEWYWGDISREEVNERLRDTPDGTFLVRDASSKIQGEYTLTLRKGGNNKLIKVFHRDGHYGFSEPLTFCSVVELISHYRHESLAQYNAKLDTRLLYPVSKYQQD

p85α nSH2 R358M = molecular target: T5, p85α nSH2 R358M (human, UniProt P27986 325-430, R358M)
T5 construct: PI3K regulatory subunit p85α, human, N-terminal SH2 domain, residues 325-430, with R358M; also called R358M variant; R358M SH2–null mutant; source: E. coli, purified
T5 sequence (P27986 325-430 R358M): as the sequence (P27986 325-430) above, with R34M counted along it

| Binder | Kd (p85α cSH2 (614–720)) [nM] | Kd (p85β cSH2 (603–712)) [nM] | Kd (p85α nSH2 (325–430)) [nM] | Kd (p85β nSH2 (312–425)) [nM] | Kd (p85α nSH2 R358M) [nM] |
| --- | --- | --- | --- | --- | --- |
| B1 | 43 | 100 |  |  |  |
| B2 | 656 |  | 82 | 52 | 2900 |
| B3 | 84000 |  | 2400 | 9000 |  |
